Measured values published in the RNAGym collection of RNA variant scans (doi:10.7554/elife.90254).

B1: OR4K15 (parent)
chain: GUUAACGGUCAUAGGCCAUGGAAACUAGGAGCACCAUUUCGCUGCCAGUGAAGAAAUGAACAAAGAAAAUCUGGGCCAGGCAGGCAUCAAAAGAAAUAGUCUUGCGCUCAACCAGAAAGUCUGUAAUCAUUUUAAGGGUA

Variants of: B1
Experiment: self-cleavage, relative activity (ratio to wild type); higher = more cleavage; in vitro, sequencing; the parent is a self-cleaving ribozyme
With U49A C121A the self-cleavage was 0.95. Work on U43G A67U yielded a self-cleavage of 2.63. Variant U43G A67G has a self-cleavage of 1.89. With U43C A89G the self-cleavage was 2.04. A47U A92G gave a self-cleavage of 0.84. U43C G83A showed a self-cleavage of 1.59. U43C G83U showed a self-cleavage of 0.67. A47G U57C gave a self-cleavage of 0.69. For G48A A56G, the self-cleavage was 1.34. Variant G44A A51G has a self-cleavage of 2.19. Variant U49A C107U has a self-cleavage of 0.04. C46A A116G showed a self-cleavage of 0.57. Work on A47U C105U yielded a self-cleavage of 0.14. For C46U A89U, the self-cleavage was 1.71. With A47C A64U the self-cleavage was 1.56. In the case of A47G A117G, the self-cleavage is reported as 1.32. For C45A U131C, the self-cleavage was 0.26. Work on G44A A68G yielded a self-cleavage of 1.81. In the case of U43C U72C, the self-cleavage is reported as 0.07. In the case of U43C U72A, the self-cleavage is reported as 0.4. Work on U49A A126G yielded a self-cleavage of 0.99. A47G G84C gave a self-cleavage of 0.24. G48A A69G gave a self-cleavage of 1.49. C46U C113A gave a self-cleavage of 0.01. With A47U A62G the self-cleavage was 0.82. Variant A47G A63G has a self-cleavage of 0.44. A47G U124C gave a self-cleavage of 0.32. For A47U U122A, the self-cleavage was 0.87. For U43C A118G, the self-cleavage was 1.02. U49A A134G gave a self-cleavage of 0.74. With G44U U70A the self-cleavage was 0. A47G U103C gave a self-cleavage of 0.34. Work on C46U A98G yielded a self-cleavage of 0.74. With G48U A96G the self-cleavage was 1.28. With C46U A67G the self-cleavage was 1.56. With U43C A86C the self-cleavage was 1.4. Work on U43G A90G yielded a self-cleavage of 0.51. With A47U U102C the self-cleavage was 1.92. In the case of A47C A60G, the self-cleavage is reported as 1.63. For U49A A55G, the self-cleavage was 1.53. In the case of A47U G75A, the self-cleavage is reported as 0.14. With U43G A69G the self-cleavage was 2.1. Variant U49A A54U has a self-cleavage of 0.89. In the case of U49A A54G, the self-cleavage is reported as 1.3. In the case of A47G A91U, the self-cleavage is reported as 0.76. In the case of U49A A125G, the self-cleavage is reported as 0.82. Variant A47C G79A has a self-cleavage of 0.14. Work on C46U G84A yielded a self-cleavage of 1.72. In the case of C45U U70C, the self-cleavage is reported as 0.82. Variant C45U U132A has a self-cleavage of 1.05. For C45U U132C, the self-cleavage was 0.61. U43C A96C gave a self-cleavage of 1. For U43C A96G, the self-cleavage was 1.09. For A47G A86C, the self-cleavage was 1.04. In the case of A47G A86G, the self-cleavage is reported as 1.25. C46U G74A gave a self-cleavage of 0.32. A47U A78U showed a self-cleavage of 0.25. With A47G A114U the self-cleavage was 0.11. A47G A110C showed a self-cleavage of 0.1. A47G A110G showed a self-cleavage of 0.1. For A47G C81U, the self-cleavage was 0.25. In the case of A47C A92G, the self-cleavage is reported as 0.95. U43C A94U showed a self-cleavage of 1.77. For U43C A94G, the self-cleavage was 1.78. For A47U A125G, the self-cleavage was 0.28. A47G U120C gave a self-cleavage of 0.48. G48A A63G gave a self-cleavage of 0.93. Work on U49A A94G yielded a self-cleavage of 1.11. A47U A63G gave a self-cleavage of 0.8. With G48A U102C the self-cleavage was 1.99. Work on U49A A52G yielded a self-cleavage of 0.96. For U43C A90G, the self-cleavage was 0.97. For A47U G50A, the self-cleavage was 0.26. Variant C45A G48A has a self-cleavage of 1.5. For A47G A62U, the self-cleavage was 1.22. With A47G U108A the self-cleavage was 0.01. With G44A U57C the self-cleavage was 1.84. Work on U43C C121U yielded a self-cleavage of 2.03. Work on U43C U100G yielded a self-cleavage of 1.75. For U43C U100A, the self-cleavage was 0.67. For C46U U100C, the self-cleavage was 2.37. A47C A110C showed a self-cleavage of 0.46. In the case of A47U U108A, the self-cleavage is reported as 0.01. In the case of G44A G65A, the self-cleavage is reported as 0. With A47C A55G the self-cleavage was 1.43. For C45U G48A, the self-cleavage was 1.78. For C45A A114G, the self-cleavage was 0.06. With G44A A89G the self-cleavage was 1.14. Variant G44A A89U has a self-cleavage of 1.59. With A47G G104A the self-cleavage was 0.05. Work on A47U A51G yielded a self-cleavage of 0.86. In the case of U49A G137A, the self-cleavage is reported as 1.92. For G44A A94G, the self-cleavage was 1.48. For C45G U100C, the self-cleavage was 1.37. C45A U120A gave a self-cleavage of 2.12. For C46U A96G, the self-cleavage was 2.13. Variant A47U A60U has a self-cleavage of 0.75. For A47U A60C, the self-cleavage was 0.14. C46U A52G gave a self-cleavage of 1.09. Variant U43C U132C has a self-cleavage of 1.27. Work on U43C U108G yielded a self-cleavage of 0.02. Variant C46A U120C has a self-cleavage of 0.87. For A47U A134G, the self-cleavage was 1.24. Work on G44U A110G yielded a self-cleavage of 0.18. Variant U43C A116C has a self-cleavage of 0.07. With A47C A56G the self-cleavage was 1.35. Work on A47U A110C yielded a self-cleavage of 0.13. Variant A47U A110G has a self-cleavage of 0.05. With G44U G137U the self-cleavage was 1.87. A47U G115A gave a self-cleavage of 0.15. A47C A125G showed a self-cleavage of 0.42. U43C A78C showed a self-cleavage of 0.29. U43C A78G showed a self-cleavage of 0.26. C45U A68G gave a self-cleavage of 1.96. G44A A134G gave a self-cleavage of 1.84. Work on U43C A117U yielded a self-cleavage of 1.17. With U43C A117G the self-cleavage was 1.75. Work on A47G A67U yielded a self-cleavage of 1.48. With C46U U120C the self-cleavage was 0.15. Work on G48C U131C yielded a self-cleavage of 0.69. For U43C U103A, the self-cleavage was 0.41. With U43C U103C the self-cleavage was 1.03. U49A A91G gave a self-cleavage of 1. U43C A67G showed a self-cleavage of 1.39. A47G U87A gave a self-cleavage of 1.63. A47U A118C showed a self-cleavage of 0.48. Work on C46U A51G yielded a self-cleavage of 1.42. C46A A78G showed a self-cleavage of 0.17. Work on U43C C45A yielded a self-cleavage of 1.19. U43C C45U gave a self-cleavage of 1.6. With U43C A129G the self-cleavage was 1.1. With A47G A89G the self-cleavage was 1.1. For C46A A134G, the self-cleavage was 1.14. For C45A A117G, the self-cleavage was 2.96. A47U A52U gave a self-cleavage of 1.2. Work on A47U A52G yielded a self-cleavage of 0.81. In the case of U43G A140G, the self-cleavage is reported as 2.62. Work on C45U A67G yielded a self-cleavage of 1.94. In the case of A47U A117G, the self-cleavage is reported as 1.25. For A47U A117U, the self-cleavage was 0.71. With A47G A59U the self-cleavage was 1.56. Variant U43C C105A has a self-cleavage of 0.02. A47C A114G showed a self-cleavage of 0.3. With A47U G138A the self-cleavage was 1.61. For G44A A59G, the self-cleavage was 1.56. In the case of C45U A95G, the self-cleavage is reported as 1.99. For C46A A110U, the self-cleavage was 1.53. Variant C45A A91G has a self-cleavage of 0.61. With U49A A66C the self-cleavage was 1.48. U49A A66U showed a self-cleavage of 1.29. Work on G48A A91U yielded a self-cleavage of 1.71. Work on U49A A69G yielded a self-cleavage of 1.49. For C46U A118U, the self-cleavage was 0.76. In the case of U49A A114U, the self-cleavage is reported as 0.04. A47U U120C showed a self-cleavage of 0.28. U43C A134U showed a self-cleavage of 2.04. A47G A90G gave a self-cleavage of 0.56. Variant A47G A90C has a self-cleavage of 1.68. A47U A98G showed a self-cleavage of 0.16. A47U A98C gave a self-cleavage of 1.44. For U43C A140U, the self-cleavage was 1.18. A47U C77A showed a self-cleavage of 0.69. Variant C46U U103C has a self-cleavage of 1.41. G48U A114U showed a self-cleavage of 0.09. U43C G99C showed a self-cleavage of 0.26. Variant A47U A68U has a self-cleavage of 0.73. In the case of A47U A69U, the self-cleavage is reported as 1.22.
